# Experimental data reported in patent US20200040103A1.
# Key:
# [1] = target: recombinant human KLK5 (human) (UniProt Q9Y337); test: pro-KLK7 LC/MS assay, 5 nM KLK5, 15 nM pro-KLK7; box prints neither IC50 nor a unit, IC50 in nM per text
# [2] = target: recombinant human KLK5 (human) (UniProt Q9Y337); test: pro-KLK7 coupled assay, 5 nM KLK5
# [3] = target: recombinant human KLK5 (human) (UniProt Q9Y337); test: pro-KLK1 LC/MS assay, 0.5 nM KLK5
# [4] = target: recombinant human KLK5 (human) (UniProt Q9Y337); test: pro-KLK1 coupled assay, 0.5 nM KLK5
# [5] = target: recombinant human KLK5 (human) (UniProt Q9Y337); test: Kiapp assay curve, 0.500 nM KLK5, Z-VPR-pNA
# [6] = target: recombinant human KLK5 (human) (UniProt Q9Y337); test: pro-KLK7 LC/MS assay, 5 nM KLK5
# [7] = target: recombinant human KLK5 (human) (UniProt Q9Y337); test: Kiapp as the y-intercept of the line of IC50 (nM) versus KLK5 (nM), Z-VPR-pNA
# [8] = target: recombinant human KLK5 (human) (UniProt Q9Y337); test: pro-KLK1 LC/MS assay, 0.5 nM KLK5, 300 nM pro-KLK1; single value in the box; unit inferred, nM
# [9] = target: recombinant human KLK5 (human) (UniProt Q9Y337); test: KLK5 direct activity assay, 5 nM KLK5, Boc-VPR-AMC
# [10] = target: recombinant human KLK5 (human) (UniProt Q9Y337); test: Kiapp assay curve, 0.250 nM KLK5, Z-VPR-pNA
# [11] = target: recombinant human KLK5 (human) (UniProt Q9Y337); test: Kiapp, KLK5 0.5-0.0625 nM, Z-VPR-pNA
# [12] = target: recombinant human KLK5 (human) (UniProt Q9Y337); test: SPR BIAcore T200, antibody captured by anti-human Fc, human KLK5 as analyte, 37 C
# [13] = target: recombinant human KLK5 (human) (UniProt Q9Y337); test: direct activity assay, 5 nM KLK5, Boc-VPR-AMC
# [14] = target: recombinant human KLK5 (human) (UniProt Q9Y337); test: pro-KLK1 coupled assay, 0.5 nM KLK5, 31.25 nM pro-KLK1, PFR-AMC
# [15] = target: recombinant human KLK5 (human) (UniProt Q9Y337); test: Kiapp assay curve, 0.125 nM KLK5, Z-VPR-pNA
# recombinant human KLK5 (human), sequence (Q9Y337 67-293): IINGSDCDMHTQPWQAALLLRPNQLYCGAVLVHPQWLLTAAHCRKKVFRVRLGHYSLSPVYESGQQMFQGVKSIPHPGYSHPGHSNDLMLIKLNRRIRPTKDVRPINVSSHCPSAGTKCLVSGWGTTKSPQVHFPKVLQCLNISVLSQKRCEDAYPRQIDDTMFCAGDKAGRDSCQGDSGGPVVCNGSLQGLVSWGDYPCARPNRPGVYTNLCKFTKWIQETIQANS
binder,measurement,setting,value
"3-3F5 (antibody, V domains shown) VH: QSVKESEGGLFKPTDTLTLTCTVSGFSLNDYGVSWVRQAPGNGLEWIGAIGSSGVAWYANWAKGRSTITRNTNLNTVTLKMASLTAADTATYFCARDRDYGYRADDATSGMDLWGPGTLVTVSS VL: AYDMTQTPASVEAAVGGTVTIKCQASESIGNALAWYQQKPGQPPKLLIYDASDLASGVPSRFKGSGSGTQFTLTISGVECADAATYYCQQGDSHNNVDNIFGGGTEVVVK",IC50,[1],1.44 nM
same,IC50,[2],1.53 nM
same,IC50,[3],0.15 nM
same,IC50,[4],0.14 nM
same,IC50 (read off the curve),[5],0.1 nM
same,IC50,[6],1.44 nM
same,Ki,[7],8.1 pM
same,IC50,[8],0.152 nM
same,IC50 (read off the curve),[9],1 to 2 nM
same,IC50 (read off the curve),[10],0.07 nM
same,Ki,[11],< 0.01 nM
same,Kd,[12],< 1 pM
same,koff,[12],< 1e-05 s⁻¹
same,kon,[12],2.93e+07 M⁻¹ s⁻¹
same,IC50,[13],1.32 nM
same,IC50 (read off the curve),[14],0.1 to 0.2 nM
same,IC50 (read off the curve),[15],0.04 nM
